Measured values: article PMC9616408

Molecular target: SD93 NA K385N/N387K mutant, recombinant NA head domain (residues 82-469) fused to a VASP tetramerization domain (not stated | influenza A virus A/Shandong/9/1993 (H3N2))
Test: SEC; HiLoad 16/100 Superdex 200 prep grade, 20 mM Tris-HCl pH 8.0, 100 mM NaCl, 10 mM CaCl2; NA head domain fused to a VASP tetramerization domain

**Q.** With “SD93 NA K385N/N387K mutant, recombinant NA head domain (residues 82-469) fused to a VASP tetramerization domain (domain or fragment)” as the substance, how does the stoichiometry N read?
**A.** The stoichiometry N was 4.
